Assay results: WO2001094586A2 (dated 2001)

T1: human gp39 (CD40 ligand), cell-surface (human, UniProt P29965 1-261)
T1 construct: whole, on cells; also called CD154; mgp39
T1 sequence (looked up): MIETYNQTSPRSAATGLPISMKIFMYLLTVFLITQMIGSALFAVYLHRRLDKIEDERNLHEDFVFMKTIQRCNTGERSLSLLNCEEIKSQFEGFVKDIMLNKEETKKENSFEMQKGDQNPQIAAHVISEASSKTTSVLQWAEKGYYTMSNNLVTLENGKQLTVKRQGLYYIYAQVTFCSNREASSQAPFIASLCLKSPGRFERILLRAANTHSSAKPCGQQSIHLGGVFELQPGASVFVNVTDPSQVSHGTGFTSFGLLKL


What was measured:
[1] = biological target: soluble fusion protein of human gp39 (gp39-CD8) (human) (UniProt P29965); assay: cell-based or functional assay
[2] = biological target: T1, human gp39 (CD40 ligand), cell-surface; assay: cell-based or functional assay
[3] = biological target: T1, human gp39 (CD40 ligand), cell-surface; assay: Scatchard analysis, 125I-labelled antibody on gp39-CHO cells

| Molecule | IL-2 production with TRAP-1 (30 ng/mL) and a 4:1 molar excess of soluble CD8-CD40L fusion protein [1] [pg/mL] | IL-2 production with immobilized anti-CD3 (10 ng/mL) [2] [pg/mL] | Kd [3] [nM] |
| --- | --- | --- | --- |
| TRAP-1, commercial murine anti-CD40L antibody | 1500 | > 4600 |  |
| humanized 24-31 antibody, version 1 (#1 VL with #1 VH) (antibody, V domains shown, also called IDEC131) VH: EVQLQESGPGLVKPSETLSLTCTVSGDSITNGFWIWIRKPPGNKLEYMGYISYSGSTYYNPSLKSRISISRDTSKNQFSLKLSSVTAADTGVYYCACRSYGRTPYYFDFWGQGTTLTVSS VL: DIVMTQSPSFLSASVGDRVTITCKASQNVITAVAWYQQKPGKSPKLLIYSASNRYTGVPDRFSGSGSGTDFTLTISSLQPEDFADYFCQQYNSYPYTFGGGTKLEIK |  |  | 5.6 |
| murine antibody 24-31 (anti-human gp39 monoclonal antibody) (antibody, V domains shown, also called murine 24-31; anti-gp39 24-31 mAb) VH: EVQLQESGPSLVKPSQTLSLTCSVTGDSITNGFWIWIRKFPGNKLEYMGYISYSGSTYYNPSLKSRISITRDTSQNQFYLQLNSVTTEDTGTYYCACRSYGRTPYYFDFWGQGTTLTVSS VL: DIVMTQSQKFMSTSVGDRVSITCKASQNVITAVAWYQQKPGQSPKLLIYSASNRYTGVPDRFSGSGSGTDFTLTISNMQSEDLADYFCQQYNSYPYTFGGGTKLEIK |  |  | 8.51 |
| humanized 24-31 antibody, version 2 (#2 VL with #1 VH) (antibody, V domains shown, Built in the N5KG1 vector (human kappa and gamma 1 constant regions); also called humanized 24-31 version 2; humanized Version 2) VH: EVQLQESGPGLVKPSETLSLTCTVSGDSITNGFWIWIRKPPGNKLEYMGYISYSGSTYYNPSLKSRISISRDTSKNQFSLKLSSVTAADTGVYYCACRSYGRTPYYFDFWGQGTTLTVSS VL: DIVMTQSPDSLAVSLGERATINCKASQNVITAVAWYQQKPGQSPKLLIYSASNRYTGVPDRFSGSGSGTDFTLTISSLQAEDVADYFCQQYNSYPYTFGGGTKLEIK |  |  | 14 |
